Laboratory results reported in PMC6405929, “Targeted drug delivery via caveolae-associated protein PV1 improves lung fibrosis” (Communications Biology, 2019).

Biological target: T1, Plasmalemma vesicle-associated protein (PV1), recombinant mouse (Mus musculus, UniProt Q91VC4)
T1 construct: plasmalemma vesicle-associated protein (PV1), mouse, recombinant; also called mouse PV1; recombinant mouse PV1
Experiment: SPR; ProteOn XPR36; mouse PV1 amine-coupled to a GLC chip at ~200 RU; antibodies injected at 100 μl/min; 25 °C, PBS pH 7.2; 1:1 Langmuir model
Settings: both partners purified

T1 sequence (Q91VC4 whole entry): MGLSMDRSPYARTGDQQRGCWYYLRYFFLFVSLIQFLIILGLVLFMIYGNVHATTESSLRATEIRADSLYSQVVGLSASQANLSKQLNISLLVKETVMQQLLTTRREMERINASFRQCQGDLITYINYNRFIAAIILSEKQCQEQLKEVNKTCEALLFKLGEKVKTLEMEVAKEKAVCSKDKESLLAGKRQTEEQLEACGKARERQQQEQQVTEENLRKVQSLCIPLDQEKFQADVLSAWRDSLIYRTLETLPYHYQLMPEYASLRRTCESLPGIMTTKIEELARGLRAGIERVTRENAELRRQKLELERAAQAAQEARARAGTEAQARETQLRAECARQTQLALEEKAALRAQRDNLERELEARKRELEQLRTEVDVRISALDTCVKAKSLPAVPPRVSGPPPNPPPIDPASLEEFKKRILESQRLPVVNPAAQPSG

B1: αPV1 IgG (de novo sequenced Meca32 variant as a human IgG1 chimeric antibody) (antibody, V domains shown)
VH: EVQLVESGGGLVQPGRSMKLSCAASGFTFSDYYMAWVRQAPKKGLEWVASISYEGNKTYYGDSVKGRFTISRDNAKSILYLQMNSLKSEDTATYYCARQSYSSYLFDYWGQGVM
VL: DIQMTQTPSSMSASLGERVTLSCGTSQGVNLFLNWYQQKPDGTIKPLIFFTSHLQSGVPSRFSGSGSGTAYSLTISSLEPEDFAVYYCQQYDSSPPTFGGGTKLYLK
notes: human IgG1 heavy-chain constant region (chimeric antibody); VL of the chosen Meca32 variant; light-chain constant region; Human IgG1 chimera of rat variable domains; also called anti-PV1 antibody; αPV1 mAb; source: HEK293F, transient, purified (protein A; SEC if necessary)
With B1 the Kd was 0.5 nM.
